Patent publication US7556938B1, “Nucleic acids encoding potassium channel interactors” (Millennium Pharmaceuticals, Inc., priority 1998, dated 2009)

T1: rKv4.3N (Rattus norvegicus, UniProt Q62897)
T1 construct: expressed in transfected cells; host or cells: yeast HF7c (bait), mated with Y187 (fish)
T1 sequence (Q62897 1-180): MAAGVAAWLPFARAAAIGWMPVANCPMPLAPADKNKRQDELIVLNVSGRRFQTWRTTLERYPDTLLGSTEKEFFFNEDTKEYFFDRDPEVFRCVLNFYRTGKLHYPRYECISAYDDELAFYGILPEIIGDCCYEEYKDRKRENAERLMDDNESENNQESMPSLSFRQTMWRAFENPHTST

T2: rKv4.2N (Rattus norvegicus, UniProt Q63881)
T2 construct: the N-terminal domains of Kv4.3, Kv4.2 were expressed as “baits” (Kv4.3N, Kv4.2N, respectively); expressed in transfected cells; host or cells: yeast HF7c (baits), mated with Y187 (fish)
T2 sequence (Q63881 1-184 limits assumed): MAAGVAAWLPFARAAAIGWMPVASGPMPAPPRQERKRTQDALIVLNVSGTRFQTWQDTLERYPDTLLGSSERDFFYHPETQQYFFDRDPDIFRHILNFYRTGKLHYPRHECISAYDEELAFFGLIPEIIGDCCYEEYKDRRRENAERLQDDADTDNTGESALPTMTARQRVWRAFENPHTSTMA

B1: Rat 7s: rat ortholog of the human vacuolar H(+)-ATPase catalytic subunit A (partial) (protein)
chain: ADSTSRWAEALREISGRLAEMPADSGYPAYLGARLASFYERAGRVKCLGNPEREGSVSIVGAVSPPGGDFSDPVTSATLGIVQVFWGLDKKLAQRKHFPSVNWLISYSKYMRALDEYYDKHFTEFVPLRTKAKEILQEEEDLAEIVQLVGKASLAETDKITLEVAKLIKDDFLQQNGYTPYDRFCPFYKTVGMLSNMISFYDMARRAVETTAQSDNKITWSIIREHMGEILYKLSSMKFKDPVKDGEAKIKADYAQLLEDMQNAFRSLED
B2: Rat 19r: identical to Rat phosphatidylinositol (PTDINS) transfer protein alpha (protein)
chain: MVLLKEYRVILPVSVDEYQVGQLYSVAEASKNETGGGEGVEVLVNEPYEKDDGEKGQYTHKIYHLQSKVPTFVRMLAPEGALNIHEKAWNAYPYCRTVITNEYMKEDFLIKIETWHKPDLGTQENVHKLEPEAWKHVEAIYIDIADRSQVLSKDYKAEEDPAKFKSIKTGRGPLGPNWKQELVNQKDCPYMCAYKLVTVKFKWWGLQNKVENFIHKQEKRLFTNFHRQLFCWLDKWVDLTMDDIRRMEEETKRQLDEMRQKDPVKGMTADD
B3: Rat 5p: identical to rat Calpactin I light chain or P10 (protein)
chain: MPSQMEHAMETMMLTFHRFAGEKNYLTKEDLRVLMEREFPGFLENQKDPLAVDKIMKDLDQCRDGKVGFQSFLSLVAGLIIACNDYFVVHMKQKK
B4: Rat 7q: identical to RAB2 (rat RAS-related protein) (protein)
chain: MAYAYLFKYIIIGDTGVGKSCLLLQFTDKRFQPVHDLTIGVEFGARMITIDGKQIKLQIWDTAGQESFRSITRSYYRGAAGALLVYDITRRDTFNHLTTWLEDARQHSNSNMVIMLIGNKSDLESRREVKKEEGEAFAREHGLIFMETSAKTASNVEEAFINTAKEIYEKIQEGVFDINNEANGIKIGPQHAATNASHGGNQGGQQAGGGCC
B5: Rat 29x: identical at the amino acid level to rat SOCS-1 (Suppressor Of Cytokine Signaling) (protein)
chain: ARLPAPEHARQQPLLSGPEPGSSARVPVPGVASRRQPRGGKPPSGDGLESGPSPRPLLHARGEAGLHRQSGRVPHTGTAYFADEPTEAQAPGGFCVSPSLLGVRWPACATRTPGSLPLSPPSAQPRTLWPTPPAGPSSRMVARNQVAADNAISPASEPRRRPEPSSSSSSSSPAAPARPRPCPVVPAPAPGDTHFRTFRSHSDYRRITRTSALLDACGFYWGPLSVHGAHERLRAEPVGTFLVRDSRQRNCFFALSVKMASGPTSIRVHFQAGRFHLDGSRETFDCLFELLEHYVAAPRRMLGAPLRQRRVRPLQELCRQRIVAAVGRENLARIPLNPVLRDYLSSFPFQI
B6: Rat 1p: partial rat PCIP of 267 amino acid residues, similar to human Restin (protein)
chain: LKGARPRVVNSTCSDFNHGSALHIAASNLCLGAAKCLLEHGANPALRNRKGQVPAEVVPDPMDMSLDKAEAALVAKELRTLLEEAVPLSCTLPKVTLPNYDNVPGNLMLSALGLRLGDRVLLDGQKTGTLRFCGTTEFASGQWVGVELDEPEGKNDGSVGGVRYFICPPKQGLFASVSKVSKAVDAPPSSVTSTPRTPRMDFSRVTGKGRREHKGKKKSPSSPSLGSLQQREGAKAEVGDQVLVAGQNRDCAFLWEDRLCSRLLVWH
B7: Rat 33b07: PCIP of 407 amino acid residues, homologous to SET and Nucleosome Assembly Proteins (protein)
chain: MNGVEGNNELPLANTSTSALVPEDLDLKQDQPLSEETDTVREMEAAGEAGAEGGASPDSEHCDPQLCLRVAENGCAAAAGEGLEDGLSSSKCGDAPLASVAANDSNKNGCQLAGPLSPAKPKTLEASGAVGLGSQMMPGPKKTKVMTTKGAISATTGKEGEAGAAMQEKKGVQKEKKAAGGGKDETRPRAPKINNCMDSLEAIDQELSNVNAQADRAFLQLERKFGRMRRLHMQRRSFIIQNIPGFWVTAFRNHPQLSPMISGQDEDMMRYMINLEVEELKHPRAGCKFKFIFQSNPYFRNEGLVKEYERRSSGRVVSLSTPIRWHRGQEPQAHIHRNREGNTIPSFFNWFSDHSLLEFDRIAEIIKGELWSNPLQYYLMGDGPRRGVRVPPRQPVESPRSFRFQSG

The molecules below were run against T1, rKv4.3N (assay: Yeast two-hybrid binding and specificity test, Kv4.3 N-terminal bait). Details: not given.
Procedure: The first 180 amino acids of rKv4.3 (described in Serdio P. et al. (1996) J. Neurophys 75:2174-2179) were amplified by PCR and cloned in frame into pGBT9 resulting in plasmid pFWA2, (hereinafter “bait”). This bait was transformed into the two-hybrid screening strain HF7c and tested for expression and self-activation. The bait was validated for expression by Western blotting.
(§1) Two-hybrid screens were carried out essentially as described in Bartel, P. et al. (1993) “Using the Two-Hybrid System to Detect Polypeptide-Polypeptide Interactions” in Cellular Interactions in Development: A Practical Approach, Hartley, D. A. ed. Oxford University Press, Oxford, pp. 153-179, with a bait-library pair of rkv4.3 bait-rat mid brain library. A filter disk beta-galactosidase (beta-gal) assay was performed essentially as previously described (Brill et al. (1994) Mol. Biol. Cell. 5:297-312). Clones that were positive for both reporter gene activity (His and beta-galactosidase) were scored and fish, plasmids were isolated from yeast, transformed into E. coli strain KC8, DNA plasmids were purified and the resulting plasmids were sequenced by conventional methods (Sanger F. et al. (1977) PNAS, 74: 5463-67).
(§2) Positive interactor clones were subjected to a binding specificity test where they were exposed to a panel of related and unrelated baits by a mating scheme previously described (Finley R. L. Jr. et al. (1994) PNAS, 91(26):12980-12984). Briefly, positive fish plasmids were transformed into Y187 and the panel of baits were transformed into HF7c. Transformed fish and bait cells were streaked out as stripes on selective medium plates, mated on YPAD plates, and tested for reporter gene activity.

Molecule	binding to rKv4.3N in yeast two-hybrid assay
B1	binds
B2	binds
B3	binds
B4	binds
B5	binds
B6	binds
B7	binds

Same assay, conditions: rKv4.3N versus rKv4.2N

Molecule	preference between rKv4.3N and rKv4.2N in yeast two-hybrid assay
B1	preference for rKv4.3N
B2	slight preference for rKv4.3N
B4	same strength
B5	slight preference for rKv4.3N
B6	slight preference for rKv4.3N
B7	slight preference for rKv4.2N

The molecules below were run against T2, rKv4.2N (assay: Yeast two-hybrid binding and specificity test, Kv4.2 N-terminal bait). Details: not given.
Procedure: as §1, §2

Molecule	binding to rKv4.2N in yeast two-hybrid assay
B1	binds
B2	binds
B3	binds
B4	binds
B5	binds
B6	binds
B7	binds

What follows are molecules tested against T3, rKv1.1N (Rattus norvegicus, UniProt P10499) (assay: Yeast two-hybrid binding and specificity test, Kv1.1 N-terminal bait). Details: not given.
T3 construct: expressed in transfected cells; host or cells: yeast HF7c (baits), mated with Y187 (fish)
Procedure: as §1, §2

T3 sequence (P10499 1-164 limits assumed): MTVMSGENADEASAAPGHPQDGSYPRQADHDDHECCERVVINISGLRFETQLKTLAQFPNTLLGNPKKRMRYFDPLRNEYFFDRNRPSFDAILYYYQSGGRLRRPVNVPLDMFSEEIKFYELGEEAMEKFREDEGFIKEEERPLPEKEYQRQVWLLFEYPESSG

Molecule	binding to rKv1.1N in yeast two-hybrid assay
B1	does not bind
B2	does not bind
B3	does not bind
B4	does not bind
B5	does not bind
B6	does not bind
B7	does not bind
